Test results: paper PMC6882858, “Seryl tRNA synthetase cooperates with POT1 to regulate telomere length and cellular senescence”

Molecular target: SerRS (seryl-tRNA synthetase) (human, UniProt P49591 1-514)
Test: EMSA; 5 mM MgCl2, poly(dG-dC); 20 mM Tris-HCl pH 8.0, 60 mM KCl, 5 mM MgCl2, 0.1 mg/mL BSA, 10 ng/uL poly(dG-dC), 1 mM DTT, 0.8 pmol labeled DNA, 30 min, room temperature; 5% native PAGE
Conditions: protein: recombinant; tags: His6 (pET20b; Ni-NTA); chain copies: 2; label: 5' 32P; blunt

Chain of SerRS (seryl-tRNA synthetase) (P49591 whole entry): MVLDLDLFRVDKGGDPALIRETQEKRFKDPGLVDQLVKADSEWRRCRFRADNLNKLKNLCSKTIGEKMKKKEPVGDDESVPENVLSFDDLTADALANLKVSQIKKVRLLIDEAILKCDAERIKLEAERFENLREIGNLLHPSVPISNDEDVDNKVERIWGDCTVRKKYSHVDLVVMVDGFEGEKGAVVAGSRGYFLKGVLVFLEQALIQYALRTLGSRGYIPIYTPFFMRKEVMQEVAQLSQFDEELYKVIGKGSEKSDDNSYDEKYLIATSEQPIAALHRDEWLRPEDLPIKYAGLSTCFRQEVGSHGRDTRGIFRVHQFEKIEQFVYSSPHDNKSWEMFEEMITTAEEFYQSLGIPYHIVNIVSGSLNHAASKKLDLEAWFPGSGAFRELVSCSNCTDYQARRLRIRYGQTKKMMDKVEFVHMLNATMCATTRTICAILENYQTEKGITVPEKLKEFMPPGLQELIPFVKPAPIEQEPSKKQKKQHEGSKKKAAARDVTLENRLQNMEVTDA

B1: Telomere [TTAGGG]5 (dsDNA)
DNA 1: TTAGGGTTAGGGTTAGGGTTAGGGTTAGGG
DNA 2: CCCTAACCCTAACCCTAACCCTAACCCTAA
B1: binds.

B2: VEGFA promoter (dsDNA)
DNA 1: GGCGGGGCGGAGCCATGCGCCCCCCCCTTT
DNA 2: AAAGGGGGGGGCGCATGGCTCCGCCCCGCC
B2: binds.

B3: Control random DNA (dsDNA)
DNA 1: TCGAAGTCGAAGCATGGGTCGAAGCATGGG
DNA 2: CCCATGCTTCGACCCATGCTTCGACTTCGA
B3: no binding.
